Test results from patent US20020150558A1 (CENTRE NATIONAL DE LA RECHERCHE SCIENTIFIQUE CNRS, published 2002).

T1: Ad5Luc3 (adenovirus serotype 5 (Ad5), UniProt P11818 1-581)
T1 sequence: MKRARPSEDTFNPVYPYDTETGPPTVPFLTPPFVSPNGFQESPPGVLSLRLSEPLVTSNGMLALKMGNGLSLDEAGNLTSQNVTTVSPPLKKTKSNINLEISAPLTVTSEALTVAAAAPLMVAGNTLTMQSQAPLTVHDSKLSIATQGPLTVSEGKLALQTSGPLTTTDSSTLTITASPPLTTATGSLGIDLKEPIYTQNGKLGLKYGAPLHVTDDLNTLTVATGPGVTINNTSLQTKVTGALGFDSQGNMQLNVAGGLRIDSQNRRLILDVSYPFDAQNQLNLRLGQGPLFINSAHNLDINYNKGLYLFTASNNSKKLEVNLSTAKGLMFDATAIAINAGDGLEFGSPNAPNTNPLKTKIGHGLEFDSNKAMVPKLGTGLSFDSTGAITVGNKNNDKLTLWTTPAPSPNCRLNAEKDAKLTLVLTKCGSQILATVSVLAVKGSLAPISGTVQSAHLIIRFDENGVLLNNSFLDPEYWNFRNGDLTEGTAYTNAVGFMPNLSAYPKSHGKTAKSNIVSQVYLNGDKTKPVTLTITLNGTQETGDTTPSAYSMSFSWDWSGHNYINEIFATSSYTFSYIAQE


Columns and labels:
[1] = molecular target: class I HLA molecules (MHC-I) at the cell surface (human); experiment: cell-based or functional assay
Ad5Luc3 = molecular target: T1, Ad5Luc3; experiment: cell-based or functional assay

Molecule	luciferase activity 18 h post-infection, attachment at 0 C; Daudi HLA- cells against Daudi-HLA+ cells (orders of magnitude) [1]	fold decrease in luciferase activity (RLU) in HeLa cells; Ad5Luc3 preincubated with peptide, attachment at 0 C (Ad5Luc3) [fold]
Ad5Luc3 (from UniProt P11818 1-581)	3 to 4	–
RAIVGFRVQWLRRYFVNGSR [synthetic peptide MH20]	–	100
